According to PMC10763564 (2023):
Starred links: 1 amine or outer side, 2 acyl side, 3 side chain; linkers in the order of their positions; H or OH if unused. Positions of bridges follow the written chain, without caps; N, C: chain ends. No end group written: not given here. TBMB = c1c(C[*:1])cc(C[*:3])cc1C[*:2]

Molecular target: extracellular domain of Transferrin Receptor 1 (UniProt P02786 89-760)
Experiment: BLI

Chain of extracellular domain of Transferrin Receptor 1 (P02786 89-760): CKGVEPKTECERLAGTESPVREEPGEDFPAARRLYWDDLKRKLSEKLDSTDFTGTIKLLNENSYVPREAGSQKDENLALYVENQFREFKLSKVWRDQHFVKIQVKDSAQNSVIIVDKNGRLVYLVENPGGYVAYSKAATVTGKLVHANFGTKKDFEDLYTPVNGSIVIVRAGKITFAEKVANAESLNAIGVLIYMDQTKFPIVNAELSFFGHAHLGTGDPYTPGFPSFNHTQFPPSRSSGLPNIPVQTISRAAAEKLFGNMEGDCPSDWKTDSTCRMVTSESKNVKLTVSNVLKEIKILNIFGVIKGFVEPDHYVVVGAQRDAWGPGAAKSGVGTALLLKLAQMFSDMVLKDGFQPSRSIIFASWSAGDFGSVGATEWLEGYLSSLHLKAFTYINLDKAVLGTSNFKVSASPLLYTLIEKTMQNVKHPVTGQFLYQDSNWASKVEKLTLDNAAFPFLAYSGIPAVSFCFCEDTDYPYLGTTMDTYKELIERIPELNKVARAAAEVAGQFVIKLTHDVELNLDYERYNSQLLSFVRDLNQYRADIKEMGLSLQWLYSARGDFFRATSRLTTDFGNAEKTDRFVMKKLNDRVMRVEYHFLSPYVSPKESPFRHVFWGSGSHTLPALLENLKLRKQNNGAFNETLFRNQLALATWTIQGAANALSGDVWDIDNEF

Kd: 25 µM
Binder: CVHWDCRQWC (linker 1-6-10 via TBMB) [BrainBike-4 as used in biolayer interferometry]
